Article PMC9478404, “Cyclin-dependent kinase-mediated phosphorylation and the negative regulatory domain of transcription factor B-Myb modulate its DNA binding” (The Journal of Biological Chemistry, 2022)

Target: T1, B-Myb negative regulatory domain NRD^440–600 (human, UniProt P10244-1 440-600)
T1 construct: human B-Myb (MYBL2), negative regulatory domain, amino acids 440 to 600; source: E. coli, purified (Glutathione Sepharose, Q-sepharose, TEV cleavage, Superdex-75); not shown: GST, N-terminal, cleaved
T1 sequence (P10244 440-600): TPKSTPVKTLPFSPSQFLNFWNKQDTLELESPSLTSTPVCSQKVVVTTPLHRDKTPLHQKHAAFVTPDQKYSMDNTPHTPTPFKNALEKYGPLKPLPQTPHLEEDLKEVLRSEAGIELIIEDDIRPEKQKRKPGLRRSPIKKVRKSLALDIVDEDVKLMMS
Assay: ITC; DBD (500 μM) titrated into NRD (50 μM) at 19 °C; 150 mM NaCl, 20 mM Tris, 1 mM BME (pH 8); MicroCal VP-ITC; mean of three technical replicates
Conditions: both partners purified

Kd: 4.5 µM
B1: B-Myb DNA-binding domain (B-Myb^34–183) (domain or fragment)
chain: not shown
notes: Limits 34-183 are printed for 'the DBD alone' in the FP experiment; also called DBD; B-Myb DBD; source: E. coli, purified (Glutathione Sepharose, Q-sepharose, TEV cleavage, Superdex-75); not shown: GST, N-terminal, cleaved
